From PMC6960015 come the findings set out here.

In the experiment the target is GST-ArhGAP12 ΔNΔP R582A (mouse (NIH 3T3 cDNA library)) (UniProt S4R248). Nature of the experiment: BLI.

For the substance “Rabbit skeletal muscle LatB-actin (from UniProt P68135 1-377) (natural protein)”, the fold reduction of binding affinity against wild type is 1300 fold.
